B1: SEQ ID NO:11 (ssRNA)
RNA: GGACGAGUUACAGGUGCUCCAUCAACAAAAUGUUACAUGGAACUGUAACGGCCG
modifications: 2'-F at all pyrimidines
B2: SEQ ID NO:10 (ssRNA)
RNA: GGAAUGGACGAGUUACAGGUGCUCCAUCAACAAAAUGUUACAUGGAACUGUAACGGCCGACAU
modifications: 2'-F at all pyrimidines
B3: SEQ ID NO:3 (ssRNA)
RNA: GGGACACAAUGGACGGCGUAAAAUGGAACCUGGGUUAGAAUAUCGGGGGUGCUCCGUAACGGCCGACAUGAGAG
modifications: 2'-F at all pyrimidines
B4: SEQ ID NO:6 (ssRNA)
RNA: GGGACACAAUGGACGGCUGGUAAGGUGCUCGGAAUGGAACUCGUCAUUCGGAACUUAACGGCCGACAUGAGAG
modifications: 2'-F at all pyrimidines
B5: SEQ ID NO:8 (ssRNA)
RNA: GGGACACAAUGGACGAAAGGUGCUCCAACUAAAUUUGGAACUUUCCACCCAUAAUAACGGCCGACAUGAGAG
modifications: 2'-F at all pyrimidines
B6: SEQ ID NO:2 (ssRNA)
RNA: GGGACACAAUGGACGUCAAAGAAGAGGUGCUCUGCGAGCCACGCGGAACUCUAUAACGGCCGACAUGAGAG
modifications: 2'-F at all pyrimidines
B7: SEQ ID NO:7 (ssRNA)
RNA: GGGACACAAUGGACGGGUGUUACAGGUGCUUGAUAAAGGUAGAAAAUCAAACUGUAACGGCCGACAUGAGAG
modifications: 2'-F at all pyrimidines
B8: SEQ ID NO:5 (ssRNA)
RNA: GGGACACAAUGGACGACUACAAGGUGCUCCUUGAAAUGUUAAAUGAGGAACUUGUAACGGCCGACAUGAGAG
modifications: 2'-F at all pyrimidines
B9: SEQ ID NO:4 (ssRNA)
RNA: GGGACACAAUGGACGGCCAACGUUAACUGGAACUGUAAAUCAGGUGCUCGAGAUAACGGCCGACAUGAGAG
modifications: 2'-F at all pyrimidines
B10: SEQ ID NO:9 (ssRNA)
RNA: GGGCCACAGCGAGGUGCUCCACCAUUCACGUGGAACUCGUGGGCAGCCCGUCCCCGCGUGUGGUCGG
modifications: 2'-F at all pyrimidines
B11: SEQ ID NO:15-4 (30F-4) (mixed)
RNA: GGAGGUGCUCCGCGGAAACGCGGAACUCC
modifications: deoxy G1 G2 C13 G15 A16 A17 A18 C19 C21 C28 C29; 2'-F U6 C8 U9 C10 C11 C26 U27; rest 2'-OH
B12: SEQ ID NO:15-3 (30F-3) (mixed)
RNA: GGAGGUGCUCCGCGAGCCACGCGGAACUCC
modifications: deoxy G1 G2 C11 C13 A15-A19 C20 C22 C29 C30; 2'-F U6 C8 U9 C10 C27 U28; rest 2'-OH
B13: SEQ ID NO:17-4 (23F10) (mixed)
RNA: GGAGGUGCUCCGAAAGGAACUCCAAAAAAAAAAAAAAAA
modifications: deoxy G1 G2 C11 G12-A15 C22 C23 and A16 tail; 2'-F U6 C8 U9 C10 C20 U21; rest 2'-OH
B14: SEQ ID NO:17-8 (23F25) (mixed)
RNA: B13 RNA
modifications: 2'-OMe G1 G2 G12-A15 C22 C23; 2'-F U6 C8 U9 C10 C11 C20 U21; deoxy A16 tail; rest 2'-OH
B15: SEQ ID NO:17-5 (23F11) (mixed)
RNA: B13 RNA
modifications: deoxy G1 G2 G12-G17 C22 C23 and A16 tail; 2'-F U6 C8 U9 C10 C11 C20 U21; rest 2'-OH
B16: SEQ ID NO:17-6 (23F12) (mixed)
RNA: B13 RNA
modifications: deoxy G1 G2 G7 G12-A15 C22 C23 and A16 tail; 2'-F U6 C8 U9 C10 C11 C20 U21; rest 2'-OH
B17: SEQ ID NO:17-2 (23F2) (mixed)
RNA: B13 RNA
modifications: deoxy G1 G2 G12-A15 C22 C23 and A16 tail; 2'-F U6 C8 U9 C10 C11 C20 U21; rest 2'-OH
B18: SEQ ID NO:23 (ssRNA)
RNA: GGGUACGAGUCUGGACUUGCAACCUAAUGCGGUGCUCCUCUGGAACCAUUAGCUGUUGCAAAUGAGGCUCACAACAGGC
modifications: 2'-F at all pyrimidines
B19: SEQ ID NO:19 (ssRNA)
RNA: GGGUACGAGUCUGGACUUGCAACAAGGUGCUCCACCUACCUAGUGGAACUUGCUGAUGAGGCUCACAACAGGC
modifications: 2'-F at all pyrimidines
B20: SEQ ID NO:21 (ssRNA)
RNA: GGGUACGAGUCUGGACUUGCAACGGAUACAGGUGCUCCGAUCUUCGGAACUGGCGUUGGCGGUGAGGCUCACAACAGGC
modifications: 2'-F at all pyrimidines
B21: SEQ ID NO:20 (ssRNA)
RNA: GGGUACGAGUCUGGACUUGCAAGGUGCUCCGUUAGCAUUGCGGAACUUGCAAUAUAUCCUAUUGAGGCUCACAACAGGC
modifications: 2'-F at all pyrimidines
B22: SEQ ID NO:22 (ssRNA)
RNA: GGGUACGAGUCUGGACUUGCAAUACGAGGUGCUCCAAGGAAUCGCCCUGGAACUCGACGACGUGAGGCUCACAACAGGC
modifications: 2'-F at all pyrimidines

Each binder was assayed against T1, IgG1 (human, UniProt P01857-1 P01857-1:1-330) (assay: SPR; solution A). Details: tags: Calbiochem; chain copies: 2; label: 3' A16 tail for SPR; 5' biotin for serum pull-down.
T1 sequence (P01857 other isoform, or with tags, fused parts or gaps): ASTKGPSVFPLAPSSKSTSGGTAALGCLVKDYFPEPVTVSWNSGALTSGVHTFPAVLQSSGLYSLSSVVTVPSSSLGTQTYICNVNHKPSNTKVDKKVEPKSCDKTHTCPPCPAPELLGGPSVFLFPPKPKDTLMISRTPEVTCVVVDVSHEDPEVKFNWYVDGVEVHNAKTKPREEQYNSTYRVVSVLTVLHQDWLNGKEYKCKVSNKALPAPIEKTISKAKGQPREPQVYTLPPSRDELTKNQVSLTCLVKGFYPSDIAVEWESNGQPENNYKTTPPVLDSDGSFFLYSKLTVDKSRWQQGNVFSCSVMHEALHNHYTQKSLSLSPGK
Procedure: (§1) Used for the measurements was BIAcore 2000 manufactured by BIAcore. Used as the sensor chip was the SA chip having streptavidin immobilized thereon. Bound thereto was about 1000 RU of 16-residue Poly dT having biotin bound to the 5′ end thereof. The RNA for use as the ligand had 16-residue Poly A added to the 3′ end thereof, and immobilized to the SA chip via a bond between dT and A. The amount immobilized was adjusted to about 1000 RU by injecting 60 μL at a concentration of 0.01 μg/μL. 70 μL of IgG-Fc for analyte (manufactured by Athens Research & Technology), adjusted to 0.6 μM, was injected. The running buffer used had the same components as those of the solution A used in SELEX.
The dissociation constant was determined by immobilizing an RNA having 16-residue PolyA added to the 3′ end thereof onto a sensor chip via an A-dT bond, injecting different concentrations of IgG (0.6 μM to 0.05 μM), and performing surface plasmon resonance.
Measurements were performed in the same manner as Example 1 by immobilizing an RNA having 16-residue Poly A added thereto via an A-pT bond, and injecting IgG thereto.

| Binder | Kd |
| --- | --- |
| GGAGGUGCUCUGCGAGCCACGCGGAACUCC (ssRNA, 2'-F at all pyrimidines) [SEQ ID NO:15] | 5 nM |

Same assay, conditions: tags: Calbiochem; chain copies: 2; label: 3' A16 tail for immobilisation

| Binder | Kd |
| --- | --- |
| B1 | 1 nM |
| B2 | 6 nM |
| GGACAGGUGCUCCGAAAGGAACUGUCC (ssRNA, 2'-F at all pyrimidines) [SEQ ID NO:16] | 6 nM |
| GGACAGGUGCUCUGCGGAAACGCGGAACUGUCC (ssRNA, 2'-F at all pyrimidines) [SEQ ID NO:14] | 4 nM |

Same assay, conditions: tags: Calbiochem; chain copies: 2; label: 3' A16 tail for immobilisation; GGUGCU bulge

| Binder | Kd |
| --- | --- |
| B3 | 10 nM |
| B4 | 1 nM |
| B5 | 3 nM |
| B6 | 5 nM |
| B7 | 0.001 nM |
| B8 | 30 nM |
| B9 | 20 nM |

Same assay, conditions: tags: Calbiochem; chain copies: 2; label: 3' A16 tail for immobilisation; GGUGCU bulge (vsfold4)

| Binder | Kd |
| --- | --- |
| B10 | 20 nM |

These binders were tested against T1, IgG1 (assay: SPR; parent SEQ 15 ++++). Details: tags: Calbiochem; chain copies: 2.

| Binder | binding result |
| --- | --- |
| B11 | binds |
| B12 | binds |

These binders were tested against T1, IgG1 (assay: SPR; parent SEQ 17 ++). Details: tags: Calbiochem; chain copies: 2.
Procedure: as §1
The RNAs were prepared by chemical synthesis (manufactured by Gene Design). Their binding affinities were measured by a surface plasmon resonance method as in Example 1. Used as the IgG was human IgG1 (manufactured by Calbiochem).

| Binder | binding result |
| --- | --- |
| GGAGGUGCUCCGAAAGGAACUCCAAAAAAAAAAAAAAAA (mixed, as 17-8 with 2'-OMe C11) [SEQ ID NO:17-13 (23F43)] | binds |
| GGAGGUGCUCCGAAAGGAACUCCAAAAAAAAAAAAAAAA (mixed, as 17-8 with 2'-OMe C10) [SEQ ID NO:17-12 (23F42)] | binds |
| GGAGGUGCUCCGAAAGGAACUCCAAAAAAAAAAAAAAAA (mixed, as 17-7 with 2'-OMe G17) [SEQ ID NO:17-10 (23F33)] | binds |
| B13 | binds |
| GGAGGUGCUCCGAAAGGAACUCCAAAAAAAAAAAAAAAA (mixed, as 17-8 with 2'-OMe U9) [SEQ ID NO:17-11 (23F41)] | binds |
| B14 | binds |
| GGAGGUGCUCCGAAAGGAACTCCAAAAAAAAAAAAAAAA (mixed, 2'-F U6 C8 U9 C20; deoxy C10 C11 T21 C22 C23 and A16 tail; rest 2'-OH) [SEQ ID NO:17-1 (23F1)] | binds |
| B15 | binds |
| GGAGGUGCUCCGAAAGGAACUCCAAAAAAAAAAAAAAAA (mixed, as 17-7 with 2'-OMe U9) [SEQ ID NO:17-14 (23F31)] | binds |
| B16 | binds |
| B17 | binds |

The binders below were run against T1, IgG1 (assay: SPR). Details: tags: Calbiochem; chain copies: 2.

| Binder | binding result |
| --- | --- |
| B18 | binds |
| B19 | binds |
| GGAGGUGUUCCGAAAGGAACUCC (ssRNA, 2'-F at all pyrimidines [2'-F pyrimidines at 6,8,9,10,11,20,21,22,23]) [SEQ ID NO:17 C8U] | no binding |

Same assay, conditions: tags: Calbiochem; chain copies: 2; GGUGCU bulge

| Binder | binding result |
| --- | --- |
| B20 | binds |
| B21 | binds |
| B22 | binds |

Same assay, conditions: tags: Calbiochem; chain copies: 2; label: 3' A16 tail for immobilisation

| Binder | binding result |
| --- | --- |
| GGAGGUGCUCGAAAGAACUCC (ssRNA, 2'-F at all pyrimidines) [SEQ ID NO:18] | binds |
| GGACAGGUGCUCCAUCAACAAAAUGUUACAUGGAACUGUCC (ssRNA, 2'-F at all pyrimidines) [SEQ ID NO:12] | binds |
| GGACAGGUGCUCUGCGAGCCACGCGGAACUGUCC (ssRNA, 2'-F at all pyrimidines) [SEQ ID NO:13] | binds |

Source: patent publication US20090170219, “Nucleic acid capable of binding to immunoglobulin G and use thereof” (published 2009)
